According to a protein production outcome set (Wang et al. 2014):

Test: label from the status in PepcDB records

Sequence | protein production
AAQEKVVKLKIVQTSDVHGNYYPYNFITRKDWQGSLARIYAFVEKEREQYKENLILLDNGDILQGQPTAYYYNYIDTVSPHLCAEMMNYMKYDAGNMGNHDVETGRAVFDRWINTCDFPVLGANIIDISTGEPHLPPYKVMERDGVKIVILGMITPAIPAWLSENLWKGLRFDDMEETARKWMKIIREKENPDLMIGLFHAGQEAFKMSGKYNENASLSVAKNVPGFDIVLMGHDHARECKKVMNVAGDSVLVIDPASNGIVLSNIDVTLKLKDGKVRSKDIKGVLTETKDYGISEDFMKNFAPQYDTVRNFVSK | failed
LYATLSGVSLALADSADRRILLQTVCDVCVREAGFEMAWVGLLDADEKRVEVAALSRGERASMPGELPGHAEDAQAPGPVSRALRSRAAQVSNDAQSDPALKPWHGALSRQGIRSLLVVPLLVRQQVAGALALHAGEEGFFDQSRRALFELMAREIGRGLERHDALERSHRAETELAFLAQ | failed
MISQASRFAPDQPPKLSCEYLTERVRALFGPHPFASQMSGDQVASLLPEYLAMSQAFPYLQAGSQRDLIFDAMHQNRDIGRDIELTSVVANFICWDETGGHGGILRGGKAALPDILLTENFHSNLLRKDAARLLGRAIRPNYSDRTKQYLHSLYAGLSSKDPLVRCAYMVAFELHAADMIQSLWTTLVKTFKARPDDLEYFRGHVGGEDPAEKYHGEMTGRLIGELVQPGLNDRFLNEFGRAYRLSVQWCRDLLGTAARTGDDHSEMQHHGRCHCGAIKFYVNAPRELSAVRCNCSICQMSGFVHLLVPGDKLRIECGEEFLTTYQFNKNIARHTFCRLCGVKPFYRPRSNPSGYSVNIRCLDRKTIEHLRISEFDGAHWEQAFLSMQQDPESCFEDQRSELEWRAQ | failed
MAMPAHMTLTGEKQGKIDGSCELQGRENTIQLYEMKHDIHMPRNPHDGLPTGKRVHGPLSIVKMFDKSSPKLYQALCTGEHMKNVQIKWYRINKQGLEEHYFTTTLEDAIVVEMKPYMPMTLLPANEPYGHMEEVAFSYKKIKWTWEPNGIEAEDSWSVPK | failed
MTQKRKLDAASPGDPHDFAADGIERQTLRMVEQALRADRLMLAWQPVVVASEAARTVFHEGLIRVLDETGRIIPARDFMSAVETQDLGRLIDCASLEKGLATLARHPGLRLSINMSARSIGHGRWMQILQGALRADPNLGPRLILEITESSAMEVPELVLPFMDALQRAGISFALDDFGAGFTAFRYLKDFFFDIIKIDGQFIRNIHRDPDNQVLTQAMLSVGRHFDMLTVAETVETAEEAEWLRAAGVDCLQGYLFGRPCTQPAWQATGTRLIA | failed
MVQEEASCELAPREKKLSIRGAIVKLGNPGFPDASARSLPLNLERLRPGGGGCPQSGSQTLWCSSSLAECSHAEVTSSEGSPRTLGLRGESRDFPVISREGASKAGGGRSGRGQRLPRGSPAGLAGLWLLLLQIARLMARQRTVAGIGPGALLALRALLVAAHPQCLDFRPPFRPPQPLSFCAQYSAFGCCTAEQDAALARRFRALETRMDAGVWATCAGYALDLLCQECSPYAAHLYDAEDPATPLRTVPGLCEDYCLDMWQTCRGLFRHLSPDRELWALESNRAKLCRYLSLDDTDYCFPSLLVNENLNSNLGRVVADAKGCLQLCLEEVANGLRNPVAMVHAGDGSHRFFVAEQVGLVWTYLPDRSRLEKPFLNVSQAVLTSPWEGDERGFLGLAFHPRFPHPSKLYVYYSVGVGFREWIRISEFRISEDDENTVDHGSERIILEIEEPASNHNGGQLLFGDDGFLYIFTGDGGMAGDPFGKFGNAQNKSALLGKVLRIDVDRKERGLPYGIPLDNPFVDDPEARPEVYALGVRNMWRCSFDRGDPVSGTHRGRLFCGDVGQNKYEEVDLVERGRNYGWRAREGFECYDRKLCANASLDDVLPIFAYPHKLGKSVTGGYVYRGCEYPNLNGLYIFGDFMSGRLMSLRENPESGQWKYSEVCMGRGQTCAFPGLINNYYPYIISFAEDEAGELYFMSTGVPSATAARGVIYKVTDPSRRAPPGKCKIRPAQVKVKSHLIPFVPKEKFIRTSESTPRPTARAPTKAPRRRRPTAAPPAPTLRPTKPARPTRRPGARKGGGRRRGRPGTAVPEPQNGSVRLVRPSGLSPGRGRVEVFIGGRWGTVCDDGWDIKAAAVVCRQLGFAHAVRAAKRAEFGEGRALRILLDDVRCAGSERNLLECAHAGVGTHNCKHEEDAGVECSHEDPDL | failed
